These results are taken from patent US20140193378A1 (UNIVERSITY OF MIAMI, published 2014).

Non-standard residues stand in square brackets, D forms with d. No end group written: not given here. *: point of attachment. Desaminotyrosyl = O=C(CCc1ccc(O)cc1)*; NMeY = CN[C@@H](Cc1ccc(O)cc1)C(=O)O; hArg = N=C(N)NCCCC[C@H](N)C(=O)O; Agmatine = N=C(N)NCCCCN*; Nle = CCCC[C@H](N)C(=O)O; Orn = NCCC[C@H](N)C(=O)O; Abu = CC[C@H](N)C(=O)O; Aoc = NCCCCCCCC(=O)O; Ava = NCCCCC(=O)O

In test [1] the target is T1, human GHRH receptor (human pituitary membrane homogenates) (human) (UniProt Q02643).
T1 sequence (looked up): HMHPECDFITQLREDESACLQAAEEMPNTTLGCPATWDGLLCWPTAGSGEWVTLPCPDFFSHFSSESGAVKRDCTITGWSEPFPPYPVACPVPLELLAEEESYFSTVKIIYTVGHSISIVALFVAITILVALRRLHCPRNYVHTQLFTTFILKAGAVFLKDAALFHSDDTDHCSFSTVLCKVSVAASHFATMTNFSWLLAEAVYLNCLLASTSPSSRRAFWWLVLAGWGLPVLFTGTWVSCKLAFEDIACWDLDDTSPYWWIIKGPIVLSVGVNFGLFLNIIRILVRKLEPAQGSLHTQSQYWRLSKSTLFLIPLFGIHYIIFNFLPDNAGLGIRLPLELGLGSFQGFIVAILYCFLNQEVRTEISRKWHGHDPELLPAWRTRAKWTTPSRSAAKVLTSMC
The test can be described thus: radioligand competition vs 125I-JV-1-42 (0.2 nM), human pituitary membranes. In general terms: Loss of bound radioactivity is the signal in a displacement assay; it reports binding, not function.

Test [2] concerns the target T1, human GHRH receptor (human pituitary membrane homogenates) (human). Described as above. The source holds these as a separate data set.
The target is the same in test [3]. The test can be described thus: radioligand competition vs [His1,125I-Tyr10,Nle27]hGHRH(1-32)NH2 (0.2 nM), human pituitary membranes.
The target of test [4] is T2, human GHRH receptor (human pituitary membrane homogenates) (human, UniProt Q02643 23-423).
T2 construct: whole, on cells; Native receptor in human pituitary membrane homogenates, not on intact cells; also called hGHRH receptor
T2 sequence (looked up): T1 sequence (looked up)
The description is as above. The text has this:
Normal human pituitaries were purchased from the National Hormone and Peptide Program (A. F. Parlow, Los Angeles, County Harbor—UCLA Medical Center, Torrance, Calif.).

Test [5] addresses T2, human GHRH receptor (human pituitary …). The test can be described thus: radioligand competition vs 125I-JV-1-42 (0.2 nM), human pituitary membranes. The text has this:
(§1) Normal human pituitaries were purchased from the National Hormone and Peptide Program (A. F. Parlow, Los Angeles, County Harbor-UCLA Medical Center, Torrance, Calif.).

Test [6] shares this target. The test is described as above.
Text: as §1
The source holds these as a separate data set.

Regarding “P-27407 [Dat^1, Gln^8, Orn^12, Abu^15, Orn^21, Nle^27, Asp^28]hGHRH(1-29)NH-CH3 (peptide)”, the Relative affinity (Binding potency) vs JI-38 in test [1] was 1.45 fold.

Take “P-20356 [N-Me-Tyr^1, Gln^8, Orn^12, Abu^15, Orn^21, Nle^27, Asp^28, Agm^29]hGHRH(1-29)NH2 (peptide)”: in test [1], the Relative affinity (Binding potency) vs JI-38 was determined as 16.1 fold. In test [2], this molecule came in with a Relative affinity (Binding potency) vs GHRH of 406 fold and a Relative affinity (Binding potency) vs JI-38 of 171 fold.

With JI-38 (peptide), the Relative affinity (Binding potency) vs GHRH in test [2] worked out at 2.4 fold; in test [3], 3.03 fold. The Relative affinity (Binding potency) vs JI-38 in test [2] and in test [3] was 1 fold each time.

JI-36 (peptide) showed a Relative affinity (Binding potency) vs GHRH in test [3] of 3.25 fold.

In test [1], “P-27406 [N-Me-Tyr^1, Gln^8, Orn^12, Abu^15, Orn^21, Nle^27, Asp^28]hGHRH(1-29)NH-CH3 (peptide)” registered a Relative affinity (Binding potency) vs JI-38 of 14.5 fold.

In test [3], JI-34 (peptide) registered a Relative affinity (Binding potency) vs GHRH of 4.32 fold.

B1: P-22325 [N-Me-Tyr^1, Gln^8, Orn^12, Abu^15, Orn^21, Nle^27, Asp^28, Apa^30]hGHRH(1-30)NH2 (peptide, from a related filing)
peptide: [NMeY]ADAIFTQSYR[Orn]VL[Abu]QLSAR[Orn]LLQDI[Nle]DR[Ava]-NH2
Molecule B1 came in with a Relative affinity (Binding potency) vs JI-38 in test [1] of 1.14 fold.

B2: P-23252 [Dat^1-D-Ala^2, Orn^12, Abu^15, Orn^21, Nle^27, Asp^28, Har^30]hGHRH(1-30)NH2 (peptide)
peptide: [Desaminotyrosyl][dA]DAIFTNSYR[Orn]VL[Abu]QLSAR[Orn]LLQDI[Nle]DR[hArg]-NH2
SMILES: CCCC[C@H](NC(=O)[C@@H](NC(=O)[C@H](CC(=O)O)NC(=O)[C@H](CCC(N)=O)NC(=O)[C@H](CC(C)C)NC(=O)[C@H](CC(C)C)NC(=O)[C@H](CCCN)NC(=O)[C@H](CCCNC(=N)N)NC(=O)[C@H](C)NC(=O)[C@H](CO)NC(=O)[C@H](CC(C)C)NC(=O)[C@H](CCC(N)=O)NC(=O)[C@H](CC)NC(=O)[C@H](CC(C)C)NC(=O)[C@@H](NC(=O)[C@H](CCCN)NC(=O)[C@H](CCCNC(=N)N)NC(=O)[C@H](Cc1ccc(O)cc1)NC(=O)[C@H](CO)NC(=O)[C@H](CC(N)=O)NC(=O)[C@@H](NC(=O)[C@H](Cc1ccccc1)NC(=O)[C@@H](NC(=O)[C@H](C)NC(=O)[C@H](CC(=O)O)NC(=O)[C@@H](C)NC(=O)CCc1ccc(O)cc1)[C@@H](C)CC)[C@@H](C)O)C(C)C)[C@@H](C)CC)C(=O)N[C@@H](CC(=O)O)C(=O)N[C@@H](CCCNC(=N)N)C(=O)N[C@@H](CCCCNC(=N)N)C(N)=O
notes: also called Peptide 23252
For B2, in test [4], the “Relative affinity (Binding potency) vs GHRH” value (from here on “Relative affinity … vs GHRH”) is 42.3 fold and the “Relative affinity (Binding potency) vs JI-38” value (“Relative affinity … vs JI-38” for short) turned out to be 13.9 fold.

B3: P-21304 [Dat^1, D-Ala^2, Gln^8, Orn^12, Abu^15, Orn^21, Nle^27, Asp^28, Amc^30]hGHRH(1-30)NH2 (peptide)
peptide: [Desaminotyrosyl][dA]DAIFTQSYR[Orn]VL[Abu]QLSAR[Orn]LLQDI[Nle]DR[Aoc]-NH2
SMILES: CCCC[C@H](NC(=O)[C@@H](NC(=O)[C@H](CC(=O)O)NC(=O)[C@H](CCC(N)=O)NC(=O)[C@H](CC(C)C)NC(=O)[C@H](CC(C)C)NC(=O)[C@H](CCCN)NC(=O)[C@H](CCCNC(=N)N)NC(=O)[C@H](C)NC(=O)[C@H](CO)NC(=O)[C@H](CC(C)C)NC(=O)[C@H](CCC(N)=O)NC(=O)[C@H](CC)NC(=O)[C@H](CC(C)C)NC(=O)[C@@H](NC(=O)[C@H](CCCN)NC(=O)[C@H](CCCNC(=N)N)NC(=O)[C@H](Cc1ccc(O)cc1)NC(=O)[C@H](CO)NC(=O)[C@H](CCC(N)=O)NC(=O)[C@@H](NC(=O)[C@H](Cc1ccccc1)NC(=O)[C@@H](NC(=O)[C@H](C)NC(=O)[C@H](CC(=O)O)NC(=O)[C@@H](C)NC(=O)CCc1ccc(O)cc1)[C@@H](C)CC)[C@@H](C)O)C(C)C)[C@@H](C)CC)C(=O)N[C@@H](CC(=O)O)C(=O)N[C@@H](CCCNC(=N)N)C(=O)NCCCCCCCC(N)=O
notes: also called Peptide 21304
Take B3: in test [4], the “Relative affinity … vs GHRH” value amounted to 74 fold and the “Relative affinity … vs JI-38” value amounted to 24.4 fold.

B4: P-23256 [Dat^1, D-Ala^2, Ala^8, Orn^12, Abu^15, Orn^21, Nle^27, Asp^28, Har^30]hGHRH(1-30)NH2 (peptide)
peptide: [Desaminotyrosyl][dA]DAIFTASYR[Orn]VL[Abu]QLSAR[Orn]LLQDI[Nle]DR[hArg]-NH2
SMILES: CCCC[C@H](NC(=O)[C@@H](NC(=O)[C@H](CC(=O)O)NC(=O)[C@H](CCC(N)=O)NC(=O)[C@H](CC(C)C)NC(=O)[C@H](CC(C)C)NC(=O)[C@H](CCCN)NC(=O)[C@H](CCCNC(=N)N)NC(=O)[C@H](C)NC(=O)[C@H](CO)NC(=O)[C@H](CC(C)C)NC(=O)[C@H](CCC(N)=O)NC(=O)[C@H](CC)NC(=O)[C@H](CC(C)C)NC(=O)[C@@H](NC(=O)[C@H](CCCN)NC(=O)[C@H](CCCNC(=N)N)NC(=O)[C@H](Cc1ccc(O)cc1)NC(=O)[C@H](CO)NC(=O)[C@H](C)NC(=O)[C@@H](NC(=O)[C@H](Cc1ccccc1)NC(=O)[C@@H](NC(=O)[C@H](C)NC(=O)[C@H](CC(=O)O)NC(=O)[C@@H](C)NC(=O)CCc1ccc(O)cc1)[C@@H](C)CC)[C@@H](C)O)C(C)C)[C@@H](C)CC)C(=O)N[C@@H](CC(=O)O)C(=O)N[C@@H](CCCNC(=N)N)C(=O)N[C@@H](CCCCNC(=N)N)C(N)=O
notes: also called Peptide 23256
For B4, in test [4], the “Relative affinity … vs GHRH” value came to 148 fold and the “Relative affinity … vs JI-38” value is 48.7 fold.

B5: P-23254 [Dat^1, D-Ala^2, Thr^8, Orn^12, Abu^15, Orn^21, Nle^27, Asp^28, Har^30]hGHRH(1-30)NH2 (peptide)
peptide: [Desaminotyrosyl][dA]DAIFTTSYR[Orn]VL[Abu]QLSAR[Orn]LLQDI[Nle]DR[hArg]-NH2
SMILES: CCCC[C@H](NC(=O)[C@@H](NC(=O)[C@H](CC(=O)O)NC(=O)[C@H](CCC(N)=O)NC(=O)[C@H](CC(C)C)NC(=O)[C@H](CC(C)C)NC(=O)[C@H](CCCN)NC(=O)[C@H](CCCNC(=N)N)NC(=O)[C@H](C)NC(=O)[C@H](CO)NC(=O)[C@H](CC(C)C)NC(=O)[C@H](CCC(N)=O)NC(=O)[C@H](CC)NC(=O)[C@H](CC(C)C)NC(=O)[C@@H](NC(=O)[C@H](CCCN)NC(=O)[C@H](CCCNC(=N)N)NC(=O)[C@H](Cc1ccc(O)cc1)NC(=O)[C@H](CO)NC(=O)[C@@H](NC(=O)[C@@H](NC(=O)[C@H](Cc1ccccc1)NC(=O)[C@@H](NC(=O)[C@H](C)NC(=O)[C@H](CC(=O)O)NC(=O)[C@@H](C)NC(=O)CCc1ccc(O)cc1)[C@@H](C)CC)[C@@H](C)O)[C@@H](C)O)C(C)C)[C@@H](C)CC)C(=O)N[C@@H](CC(=O)O)C(=O)N[C@@H](CCCNC(=N)N)C(=O)N[C@@H](CCCCNC(=N)N)C(N)=O
notes: also called Peptide 23254
Take B5: in test [4], the “Relative affinity … vs GHRH” value came to 84.5 fold and the “Relative affinity … vs JI-38” value is 27.8 fold.

B6: P-22327 [Dat^1, Gln^8, Orn^12, Abu^15, Orn^21, Nle^27, Asp^28, Apa^30]hGHRH(1-30)NH2 (peptide, from a related filing)
peptide: [Desaminotyrosyl]ADAIFTQSYR[Orn]VL[Abu]QLSAR[Orn]LLQDI[Nle]DR[Ava]-NH2
SMILES: CCCC[C@H](NC(=O)[C@@H](NC(=O)[C@H](CC(=O)O)NC(=O)[C@H](CCC(N)=O)NC(=O)[C@H](CC(C)C)NC(=O)[C@H](CC(C)C)NC(=O)[C@H](CCCN)NC(=O)[C@H](CCCNC(=N)N)NC(=O)[C@H](C)NC(=O)[C@H](CO)NC(=O)[C@H](CC(C)C)NC(=O)[C@H](CCC(N)=O)NC(=O)[C@H](CC)NC(=O)[C@H](CC(C)C)NC(=O)[C@@H](NC(=O)[C@H](CCCN)NC(=O)[C@H](CCCNC(=N)N)NC(=O)[C@H](Cc1ccc(O)cc1)NC(=O)[C@H](CO)NC(=O)[C@H](CCC(N)=O)NC(=O)[C@@H](NC(=O)[C@H](Cc1ccccc1)NC(=O)[C@@H](NC(=O)[C@H](C)NC(=O)[C@H](CC(=O)O)NC(=O)[C@H](C)NC(=O)CCc1ccc(O)cc1)[C@@H](C)CC)[C@@H](C)O)C(C)C)[C@@H](C)CC)C(=O)N[C@@H](CC(=O)O)C(=O)N[C@@H](CCCNC(=N)N)C(=O)NCCCCC(N)=O
With B6, the Relative affinity (Binding potency) vs JI-38 in test [1] was 2.18 fold.

B7: P-20350 [Dat^1, D-Ala^2, Gln^8, Orn^12, Abu^15, Orn^21, Nle^27, Asp^28, Agm^29]hGHRH(1-29)NH2 (peptide)
peptide: [Desaminotyrosyl][dA]DAIFTQSYR[Orn]VL[Abu]QLSAR[Orn]LLQDI[Nle]D[Agmatine]
SMILES: CCCC[C@H](NC(=O)[C@@H](NC(=O)[C@H](CC(=O)O)NC(=O)[C@H](CCC(N)=O)NC(=O)[C@H](CC(C)C)NC(=O)[C@H](CC(C)C)NC(=O)[C@H](CCCN)NC(=O)[C@H](CCCNC(=N)N)NC(=O)[C@H](C)NC(=O)[C@H](CO)NC(=O)[C@H](CC(C)C)NC(=O)[C@H](CCC(N)=O)NC(=O)[C@H](CC)NC(=O)[C@H](CC(C)C)NC(=O)[C@@H](NC(=O)[C@H](CCCN)NC(=O)[C@H](CCCNC(=N)N)NC(=O)[C@H](Cc1ccc(O)cc1)NC(=O)[C@H](CO)NC(=O)[C@H](CCC(N)=O)NC(=O)[C@@H](NC(=O)[C@H](Cc1ccccc1)NC(=O)[C@@H](NC(=O)[C@H](C)NC(=O)[C@H](CC(=O)O)NC(=O)[C@@H](C)NC(=O)CCc1ccc(O)cc1)[C@@H](C)CC)[C@@H](C)O)C(C)C)[C@@H](C)CC)C(=O)N[C@@H](CC(=O)O)C(=O)NCCCCNC(=N)N
notes: also called Peptide 20350
Take B7: in test [5], the “Relative affinity … vs GHRH” value amounted to 102 fold and the “Relative affinity … vs JI-38” value stood at 42.7 fold. The “Relative affinity … vs JI-38” value in test [6] was 8.37 fold.
